# B1: CA17676 (VHH)
# VHH: QVQLVESGGGLVQAGGSLRLSCAGSGGTFSAYTMGWFRQGLGEERELVACISRSGASTFYTDPVKGRFTISRDNDKNTVYLQMNNLKPEDTAVYYCAADWTVIDEITEQRSKHQTSYDYWGQGTQVTVSS
# notes: C-terminal 6xHis-EPEA tag is part of the entry
# B2: CA8780 (VHH)
# VHH: QVQLQESGGGLVQPGGSLRLSCAPSGPFSPNSMGWYRQAPGKQRELVAVMTIDGRTNYQDSVKGRFTISRDYVKNTAYLQMNNLKPDDTAVYICNAETRGFMHWGQGTQVTVSS
# notes: Control Nanobody; C-terminal 6xHis-EPEA tag is part of the entry; also called irrelevant Nb
# B3: CA17518 (VHH)
# VHH: QVQLVESGGGLVQAGGSLRLSCVTSGFTFDDYAIGWFRQAPGKEREGVSSISSSDGTTYYADSVKGRFTISSDNAKNTVYLQMNNLKPEDTAVYYCAADWAAWPSIRVGVGVPAYEYDYWGQGTQVTVSS
# notes: as for B1
# B4: CA17673 (VHH)
# VHH: QVQLVESGGGLVQAGGSLRLSCAASARAFMNYIMGWFRQAPGKEREFVATISWSGVTTDYADNVKGRFTISRDNAKNTVSLQMNSLKPEDTAIYYCAAKSAVGYYSDIYNSRAKEYDYWGQGTQVTVSS
# notes: as for B1
# B5: CA17675 (VHH)
# VHH: QVQLVESGGKLVPAGDSLRLSCAASGRTFSDYIIGWFRQVSGKERKFVAAIRRSDGETVYTDSVKGRFTISRDNAKNTVYLQMNSLKPEDTAVYYCYLNNRNSRGSMDAYWGQGTQVTVSS
# notes: as for B1
# B6: CA17517 (VHH)
# VHH: QVQLVESGGGLVQPGGSLRLSCAASGRTFSNYIMGWFRQPPGKEREFVATISWSGSDTVYASSVKGRFTISRDNAKSTVYLQMNSLKPEDTAIYYCAAKDAVGYWSSDVYSEAKEYDYWGQGTQVTVSS
# notes: as for B1
# B7: CA17674 (VHH)
# VHH: QVQLVESGGGLVQPGDFLRLSCAASDRTFSNYIMGWFRQAPGKEREFVATISWSGSDTVYASSVKGRFTISRDNAKSTVYLKMNSLKPEDTAIYYCAAKYAVGYWGNDVASEAKDYNYWGQGTQVTVSS
# notes: as for B1
# B8: CA17520 (VHH)
# VHH: QVQLVESGGGLVQTGGSLRLSCAASVRTFSNYIMGWFRQAPGKEREFVATISWSGINTYYADNVKGRFTISRDNARNTVYLQMNSLKPEDTAIYYCAAKSAVGYYHDSYASRAEEYDYWGQGTQVTVSS
# notes: as for B1
# B9: CA17519 (VHH)
# VHH: QVQLVESGGGLVQPGGSLRLSCAASGRIFSIYVMGWYRQAPGKQRELVAQITNSGRTKFADSVKGRFTISRDNAKNMVYLQMNSLKAEDTAVYYCYADLDWYGGTANNDFWGQGTQVTVSS
# notes: as for B1
# Molecular target: T1, GFP protein (Aequorea victoria (Water jellyfish) …, UniProt P42212 1-238 = GFP, biotinylated with the EZ-Link sulfo-NHS-LC-biotinylation kit for the BLI assay; unmodified in the NANEX selections)
# T1 construct: Purified GFP; also called wild type GFP; biotinylated GFP
# Assay: BLI (Octet), biotinylated GFP on streptavidin sensors saturated with CA12760, second step CA12760 + 2nd Nb
# Procedure: The binding properties of the newly discovered GFP-specific Nanobodies were analysed by a Bio-layer interferometry (BLI) on an OctetRed (molecular devices). Streptavidin-coated Octet® biosensors were used to capture biotinylated GFP (100 nM). Next, the picomolar GFP stripper (CA12760; SEQ ID NO:1) was allowed to bind to GFP until a plateau was reached. These CA12760-saturated biosensors were next incubated separately in solutions containing each newly discovered Nb (as indicated in the legend of the figure), supplemented with CA12760 Nb. Assays were performed in HEPES 25 mM pH 7.5, NaCl 150 mM supplemented with BSA 0.1% and Tween₂₀ 0.005% at room temperature.
# Epitope analysis. […] For this we loaded the Streptavidin biosensor with biotinylated GFP, next we allowed CA12760 (SEQ ID NO:1), the GFP-stripper with picomolar affinity, to bind to GFP. After washing, this biosensor loaded with the GFP-CA12760 complex was incubated with the newly discovered Nbs.
# Epitope mapping of GFP Nanobodies by Bio-layer interferometry (BLI). Streptavidin-coated Octet® biosensors were used to capture biotinylated GFP (100 nM). Unbound biotinylated GFP is washed off from biosensor by two washing steps (60 seconds in buffer). Next, Streptavidin-coated Octet® biosensors with GFP were first incubated for 400 seconds with 20 nM CA12760, the GFP stripper, washed briefly, followed by an incubation of 400 seconds in a premix of 20 nM CA12760 with the different Nbs to be tested. Data were analyzed on an OctetRed (molecular devices). All assays were performed in HEPES 25 mM pH 7.5, NaCl 150 mM supplemented with BSA 0.1% and Tween₂₀ 0.005% at room temperature.
row,Binder,binding result
1,B1,binds
2,B2,no binding
3,B3,binds
4,B4,binds
5,B5,binds
6,B6,binds
7,B7,binds
8,B8,binds
9,B9,binds

# — patent US20240287501A1 (VIB VZW, published 2024)
